Experimental data taken from US20240252534A1.

Assays:
[1] = biological target: Recombinant PSMA-His (sino biologicals) (UniProt Q04609); assay: SPR, Biacore T200, pH 7; antibody captured on Protein A chip, PSMA-His as analyte, 1:1 Langmuir fit
[2] = biological target: Recombinant PSMA-His (sino biologicals) (UniProt Q04609); assay: SPR, Biacore T200, pH 6; antibody captured on Protein A chip, PSMA-His as analyte, 1:1 Langmuir fit
[3] = biological target: Recombinant PSMA-His (sino biologicals) (UniProt Q04609); assay: SPR, Biacore T200, pH 6.5; antibody captured on Protein A chip, PSMA-His as analyte, 1:1 Langmuir fit
[4] = biological target: Recombinant PSMA-His (sino biologicals) (UniProt Q04609); assay: SPR, Biacore T200, pH 7.4; antibody captured on Protein A chip, PSMA-His as analyte, 1:1 Langmuir fit

Chain of Recombinant PSMA-His (sino biologicals) (Q04609 44-750 limits assumed): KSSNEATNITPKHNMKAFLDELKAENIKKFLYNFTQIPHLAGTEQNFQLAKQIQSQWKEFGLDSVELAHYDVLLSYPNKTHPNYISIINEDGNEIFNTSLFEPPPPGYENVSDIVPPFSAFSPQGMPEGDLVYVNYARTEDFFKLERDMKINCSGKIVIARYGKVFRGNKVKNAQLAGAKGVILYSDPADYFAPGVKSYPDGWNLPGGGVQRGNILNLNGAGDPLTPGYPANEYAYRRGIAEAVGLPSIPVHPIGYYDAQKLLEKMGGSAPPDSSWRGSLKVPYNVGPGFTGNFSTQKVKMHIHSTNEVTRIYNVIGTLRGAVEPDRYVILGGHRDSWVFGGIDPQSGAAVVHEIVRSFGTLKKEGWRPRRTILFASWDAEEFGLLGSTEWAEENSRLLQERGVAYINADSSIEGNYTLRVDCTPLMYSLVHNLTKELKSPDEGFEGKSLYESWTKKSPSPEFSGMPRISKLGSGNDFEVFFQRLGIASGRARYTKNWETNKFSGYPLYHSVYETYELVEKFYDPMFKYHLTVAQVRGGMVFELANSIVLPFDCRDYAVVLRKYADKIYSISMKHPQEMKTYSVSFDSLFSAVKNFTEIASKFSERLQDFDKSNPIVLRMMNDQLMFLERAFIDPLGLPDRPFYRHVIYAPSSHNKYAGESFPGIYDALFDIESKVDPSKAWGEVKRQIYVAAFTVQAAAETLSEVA

Kd [1]: 2.54 nM | Kd [2]: 0.551 nM | Kd [3]: 0.984 nM | Kd [4]: 2.76 nM
Substance: Anti-PSMA antibody J591 (UPenn)
